For the test, the target named is Laminin-111 (UniProt P19137). Kind of test: SPR. A general note: In SPR one partner is held on a chip, and binding of the other changes the refractive index at the surface.

For VEGFA165 (ligand), the dissociation constant Kd is 0.047 µM.

By Kd is commonly meant a measure of binding affinity in units of concentration. Lower therefore signals tighter binding.

For the origin of these results see doi:10.1101/099465.
